Patent US20100015126A1, “Methods of Binding of Cross-Beta Structures By Chaperones” (priority 2006, published 2010)

Target: T1, human BiP (Homo sapiens, UniProt P11021)
T1 construct: The human BiP gene except the signal peptide encoding region was obtained from Geneart (Germany); linker […]; made in house; host or cells: HEK 293E cells, transient transfection, PABC674 vector; secreted into the medium
Assay: Competition ELISA: BiP binding to misfolded proteins under influence of crossbeta binding compounds
Settings: for Influence on interaction of BiP with misfolded proteins comprising crossbeta structure (summary in words): BiP binding without compound set to 100%
Procedure, shortened: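 Misfolded protein ligands were coated in pH 9.6 bicarbonate, typically at 5 μg/ml. A fixed sub-optimal BiP concentration was incubated for 1 h at room temperature with crossbeta-binding compound series, and bound BiP was detected by peroxidase antibodies with TMB read at 450 nm. Signals were background-subtracted, and binding without compound was set to 100%.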

[1] = fixed sub-optimal BiP concentration, 10 mM ε-amino caproic acid

T1 sequence (P11021 19-654): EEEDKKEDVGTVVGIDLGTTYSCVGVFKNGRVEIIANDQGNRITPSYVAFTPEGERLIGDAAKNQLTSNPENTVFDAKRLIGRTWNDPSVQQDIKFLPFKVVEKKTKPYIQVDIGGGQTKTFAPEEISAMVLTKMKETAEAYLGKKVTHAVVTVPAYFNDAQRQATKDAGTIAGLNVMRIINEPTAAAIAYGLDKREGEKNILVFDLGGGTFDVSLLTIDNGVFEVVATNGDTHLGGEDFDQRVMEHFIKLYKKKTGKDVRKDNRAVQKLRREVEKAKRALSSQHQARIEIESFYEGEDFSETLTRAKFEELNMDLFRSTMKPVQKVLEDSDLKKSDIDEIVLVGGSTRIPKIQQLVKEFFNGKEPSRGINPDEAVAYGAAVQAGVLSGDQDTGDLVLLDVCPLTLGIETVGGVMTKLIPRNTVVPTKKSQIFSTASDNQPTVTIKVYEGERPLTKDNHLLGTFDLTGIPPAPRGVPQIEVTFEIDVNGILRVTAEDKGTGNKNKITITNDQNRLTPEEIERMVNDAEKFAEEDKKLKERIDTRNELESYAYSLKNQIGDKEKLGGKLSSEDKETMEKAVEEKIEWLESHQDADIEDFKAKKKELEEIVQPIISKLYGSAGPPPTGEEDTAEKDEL

Nc1c(/N=N/c2ccc(-c3ccc(/N=N/c4cc(S(=O)(=O)O)c5ccccc5c4N)cc3)cc2)cc(S(=O)(=O)O)c2ccccc12 [Congo red]
Influence on interaction of BiP with misfolded proteins comprising crossbeta structure (summary in words): general inhibitors

Cc1ccc2c(c1)sc(-c1ccc(N(C)C)cc1)[n+]2C.[Cl-] [ThT, Thioflavin T]
Influence on interaction of BiP with misfolded proteins comprising crossbeta structure (summary in words): can either potentiate BiP binding, or inhibit

GSNKGAIIGLM [6BB6, Human Aβ (25-35)]
Influence of K2P tPA on interaction of BiP with misfolded protein [1]: −
Influence of tPA on interaction of BiP with misfolded protein [1]: ↓ (a ↓ sign refers to inhibited abolished binding of BiP)
Influence of IgIV on interaction of BiP with misfolded protein (fixed sub-optimal BiP concentration, IgIV Octagam series): ↓ (a ↓ sign refers to inhibited abolished binding of BiP)
Influence of Congo red on interaction of BiP with misfolded protein (fixed sub-optimal BiP concentration, concentration series of Congo red): ↓ (a ↓ sign refers to inhibited abolished binding of BiP)
Influence of ThS on interaction of BiP with misfolded protein (fixed sub-optimal BiP concentration, concentration series of ThS): −
